T1: bovine pancreatic trypsin (Bos taurus, UniProt P00760)
T1 construct: purchased Worthington (Worthington Biochemical Corp.)
T1 sequence (P00760 24-246): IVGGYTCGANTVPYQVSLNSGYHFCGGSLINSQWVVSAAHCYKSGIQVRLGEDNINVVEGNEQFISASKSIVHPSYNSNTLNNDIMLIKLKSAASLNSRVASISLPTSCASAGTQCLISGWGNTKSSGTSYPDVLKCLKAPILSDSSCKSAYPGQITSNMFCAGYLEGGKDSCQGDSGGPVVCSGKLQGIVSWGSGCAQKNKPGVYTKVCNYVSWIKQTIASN

B1: BBIt-AV-F50T: BBIt-AV (SEQ ID NO:187) with single substitution F50T (protein)
chain: DDESSKPCCDQCACTKSNPPQCRCSDMRLNSCHSACKSCACYNLYGWTCTCVDITDFCYEPCKPSE
modifications: synthetic BBIt-AV sequence
B2: F50R: BBIt-AV (SEQ ID NO:187) with single substitution F50R (protein)
chain: DDESSKPCCDQCACTKSNPPQCRCSDMRLNSCHSACKSCACYNLYGWTCRCVDITDFCYEPCKPSE
modifications: synthetic BBIt-AV sequence
B3: Q11L: BBIt-AV (SEQ ID NO:187) with single substitution Q11L (protein)
chain: DDESSKPCCDLCACTKSNPPQCRCSDMRLNSCHSACKSCACYNLYGWTCFCVDITDFCYEPCKPSE
modifications: synthetic BBIt-AV sequence
B4: S25E: BBIt-AV (SEQ ID NO:187) with single substitution S25E (protein)
chain: DDESSKPCCDQCACTKSNPPQCRCEDMRLNSCHSACKSCACYNLYGWTCFCVDITDFCYEPCKPSE
modifications: synthetic BBIt-AV sequence
B5: R23H: BBIt-AV (SEQ ID NO:187) with single substitution R23H (protein)
chain: DDESSKPCCDQCACTKSNPPQCHCSDMRLNSCHSACKSCACYNLYGWTCFCVDITDFCYEPCKPSE
modifications: synthetic BBIt-AV sequence
B6: Q11R: BBIt-AV (SEQ ID NO:187) with single substitution Q11R (protein)
chain: DDESSKPCCDRCACTKSNPPQCRCSDMRLNSCHSACKSCACYNLYGWTCFCVDITDFCYEPCKPSE
modifications: synthetic BBIt-AV sequence
B7: S25A: BBIt-AV (SEQ ID NO:187) with single substitution S25A (protein)
chain: DDESSKPCCDQCACTKSNPPQCRCADMRLNSCHSACKSCACYNLYGWTCFCVDITDFCYEPCKPSE
modifications: synthetic BBIt-AV sequence
B8: M27V: BBIt-AV (SEQ ID NO:187) with single substitution M27V (protein)
chain: DDESSKPCCDQCACTKSNPPQCRCSDVRLNSCHSACKSCACYNLYGWTCFCVDITDFCYEPCKPSE
modifications: synthetic BBIt-AV sequence
B9: A13M: BBIt-AV (SEQ ID NO:187) with single substitution A13M (protein)
chain: DDESSKPCCDQCMCTKSNPPQCRCSDMRLNSCHSACKSCACYNLYGWTCFCVDITDFCYEPCKPSE
modifications: synthetic BBIt-AV sequence
B10: R23S: BBIt-AV (SEQ ID NO:187) with single substitution R23S (protein)
chain: DDESSKPCCDQCACTKSNPPQCSCSDMRLNSCHSACKSCACYNLYGWTCFCVDITDFCYEPCKPSE
modifications: synthetic BBIt-AV sequence
B11: A35D: BBIt-AV (SEQ ID NO:187) with single substitution A35D (protein)
chain: DDESSKPCCDQCACTKSNPPQCRCSDMRLNSCHSDCKSCACYNLYGWTCFCVDITDFCYEPCKPSE
modifications: synthetic BBIt-AV sequence
B12: N18M: BBIt-AV (SEQ ID NO:187) with single substitution N18M (protein)
chain: DDESSKPCCDQCACTKSMPPQCRCSDMRLNSCHSACKSCACYNLYGWTCFCVDITDFCYEPCKPSE
modifications: synthetic BBIt-AV sequence
B13: K37E: BBIt-AV (SEQ ID NO:187) with single substitution K37E (protein)
chain: DDESSKPCCDQCACTKSNPPQCRCSDMRLNSCHSACESCACYNLYGWTCFCVDITDFCYEPCKPSE
modifications: synthetic BBIt-AV sequence
B14: N18I: BBIt-AV (SEQ ID NO:187) with single substitution N18I (protein)
chain: DDESSKPCCDQCACTKSIPPQCRCSDMRLNSCHSACKSCACYNLYGWTCFCVDITDFCYEPCKPSE
modifications: synthetic BBIt-AV sequence
B15: M27I: BBIt-AV (SEQ ID NO:187) with single substitution M27I (protein)
chain: DDESSKPCCDQCACTKSNPPQCRCSDIRLNSCHSACKSCACYNLYGWTCFCVDITDFCYEPCKPSE
modifications: synthetic BBIt-AV sequence
B16: S25T: BBIt-AV (SEQ ID NO:187) with single substitution S25T (protein)
chain: DDESSKPCCDQCACTKSNPPQCRCTDMRLNSCHSACKSCACYNLYGWTCFCVDITDFCYEPCKPSE
modifications: synthetic BBIt-AV sequence

Marks after values point to notes of the source that are not given here.

The target of one series is T1, bovine pancreatic trypsin. Description: BBIt-AV:BCE activity ratio, microtiter plate screens (primary, quadruplicate secondary). The series is classed as biochemical. The settings on record: after activation with reducing agent (2-mercaptoethanol). The method, then: The cultures in each master plate were thawed and a pin replicator was used to inoculate a new sterile microtiter plate containing 150 μl of Luria broth with 5 μg/ml chloramphenicol in each well. The plates were grown for ˜10 hrs in a humidified and aerated box as described above. For controls, the cultures in two wells were replaced with BBI and BBI-AV cultures that had been grown concurrently in 15 ml culture tubes (5 ml of Luria broth with 5 μg/ml chloramphenicol). After the cultures were grown, the plate was used to inoculate two duplicate 96-well filter plates (Millipore, MSGV2210) containing 150 μl of MBD medium (Vogtentanz et al., 2007) with 5 μg/ml chloramphenicol in each well by using a pin replicator. The duplicate plates were grown for ˜14 hours (as above, with plastic spacers placed between the stacked plates to allow for efficient air flow around the plates) and then 2-mecaptoethanol was added to each well in one of the plates to a final concentration of 2 mM. The plates were then grown for an additional ˜46 hours. The 96-well filter plates containing the culture broth (with or without added 2-mecaptoethanol) were then assayed for BBI and BCE activity.
Libraries were analyzed using dilutions of cultures grown in 96-well plates. Typically, the culture broth from each well was diluted (200 fold) in Assay Buffer (100 mM Tris pH 8.6, 0.005% Tween 80) and transferred to a second microtiter plate (CoStar 9017, Corning, Inc., Corning, N.Y.). Then, 20 μl of the diluted samples were transferred to a third microtiter plate. A standard curve was created by adding 20, 10, 5 or 2.5 μl of the diluted sBBI (SEQ ID NO:13) control culture to empty wells. Then, 80 μL of 50 ng/ml trypsin (bovine pancreatic trypsin, Worthington Biochemical Corp., Lakewood, N.J.) (prepared from a 1 mg/mL stock solution diluted into Assay Buffer) was added to each well of the plate. The reactions were mixed and incubated 15 min at room temperature. After the incubation, 100 μL of 0.5 mg/ml trypsin substrate (succinyl-Ala-Ala-Pro-Arg-para-nitroanilide, Bachem Bioscience, Inc., King of Prussia, Pa.), diluted in Assay Buffer from a 100 mg/ml solution in DMSO, was added to each well, mixed, and the absorbance at 405 nm was monitored for 15 min, with 1 time point recorded every 12 sec using a Spectra Max 250 (Molecular Devices). The data points were used to determine the rate for each reaction. The standard curve was generated by plotting the reaction rate versus the BBI volume and was fitted to a four-parameter equation. All data fitting was done using software supplied by the manufacturer (Molecular Devices Corp., Sunnyvale, Calif.). The activity of each BBIt-AV variant was calculated from the standard curve. Thus, the activities of all modified variant proteins were determined relative to the activity in the sBBI control (BBI-WT) culture.
The concentration of BCE was determined by an activity assay using purified BCE as a standard as described above and by (Vogtentanz et al. 2007). For the analysis of libraries grown in 96-well microtiter plates, 20 μl of culture broth were transferred to each well of a new microtiter plate. A standard curve was created by adding 20, 10, 5 or 2.5 μl of the diluted BBI-WT control culture to these empty wells. Then, 180 μl of the BCE substrate (0.25 μg/ml in Assay Buffer), 4-nitrophenyl β-D-cellobioside (Sigma, St. Louis, Mo.), was added to the plate. The plate was mixed and the absorbance at 405 nm monitored for 15 min, with 1 time point recorded every 12 s using a Spectra Max 250 (Molecular Devices Corp., Sunnyvale, Calif.). The data points were used to determine the rate for each reaction. The standard curve was generated by plotting rate versus culture volume and was fit to a quadratic curve. The BCE concentration in each variant culture was determined relative to the standard control culture. […]
As to B1, the “BBIt-AV:BCE activity ratio relative to unmodified BBIt-AV” value is listed as “three-fold greater”.
Still for that read-out and setting: the result for B2 reads “best BBIt-AV:BCE-activity ratio”.

The series is the same for the next values; noted with them: prior to activation.
On to B1, for which the “initial BBIt-AV:BCE activity ratio relative to unmodified BBIt-AV” value is reported as “comparable to that of the unmodified BBIt-AV parent”.

The series is the same for the next values; noted with them: single substitution in BBIt-AV, in the presence of reducing agent.
Regarding B3, the “relative activity of the amino acid substitution (BBI:BCE activity ratio vs BBIt-AV), amino acid present in BBIsb3-AV” value is recorded as “L (+/−)**”.
Still for that read-out and setting: the value for B4 was “E (−−−) (the greater the number of “−”, the greater the difference.)”.
B5: the “relative activity of the amino acid substitution (BBI:BCE activity ratio vs BBIt-AV), amino acid present in BBItc-AV” value was “H (−)”.
On to B6, for which the “relative activity of the amino acid substitution (BBI:BCE activity ratio vs BBIt-AV), amino acid present in BBItc-AV” value is given as “R (+/−)”.
Take B2: the “relative activity of the amino acid substitution (BBI:BCE activity ratio vs BBIt-AV), amino acid present in BBIsb3-AV” value is recorded as “R (++) (the greater the number of “+”, the greater the difference.)” and the “relative activity of the amino acid substitution (BBI:BCE activity ratio vs BBIt-AV), amino acid present in BBItc-AV” value is reported as “R (++) (the greater the number of “+”, the greater the difference.)”.
For the molecule B7, the “relative activity of the amino acid substitution (BBI:BCE activity ratio vs BBIt-AV), amino acid present in BBItc-AV” value is listed as “A (+)”.
Regarding B8, the “relative activity of the amino acid substitution (BBI:BCE activity ratio vs BBIt-AV), amino acid present in BBIdb-AV” value is “V (+/−)”.
Regarding B9, the “relative activity of the amino acid substitution (BBI:BCE activity ratio vs BBIt-AV), amino acid present in BBIsb3-AV” value was “M (+)***”.
As for B10, the “relative activity of the amino acid substitution (BBI:BCE activity ratio vs BBIt-AV), amino acid present in BBIsb3-AV” value was “S (−−−) (the greater the number of “−”, the greater the difference.)”.
Still for that read-out and setting: the result for B11 reads “D (+/−)”; that for B12, “M (+/−)”.
For B13, the “relative activity of the amino acid substitution (BBI:BCE activity ratio vs BBIt-AV), amino acid present in BBItc-AV” value is listed as “E (+/−)”.
For B14, the “relative activity of the amino acid substitution (BBI:BCE activity ratio vs BBIt-AV), amino acid present in BBIdb-AV” value is given as “I (+++) (the greater the number of “+”, the greater the difference.)” and the “relative activity of the amino acid substitution (BBI:BCE activity ratio vs BBIt-AV), amino acid present in BBItc-AV” value is “I (+++) (the greater the number of “+”, the greater the difference.)”.
As for B15, the “relative activity of the amino acid substitution (BBI:BCE activity ratio vs BBIt-AV), amino acid present in BBIsb3-AV” value is recorded as “I (+/−)” and the “relative activity of the amino acid substitution (BBI:BCE activity ratio vs BBIt-AV), amino acid present in BBItc-AV” value was “I (+/−)”.
Regarding B16, the “relative activity of the amino acid substitution (BBI:BCE activity ratio vs BBIt-AV), amino acid present in BBIdb-AV” value is recorded as “T (+/−)”.

The values are drawn from patent US7772181B2, “Personal care compositions comprising modified variant Bowman Birk Protease Inhibitors” (Danisco US Inc., priority 2008, dated 2010).
